Residue numbers refer to the chain shown, from its start. In names and notes the source's numbering stands.
B1: PII-LgBiT (wild-type PII protein from Synechocystis sp. PCC6803 fused to Large BiT) (natural protein, UniProt Q55247 1-112, looked up)
chain: MKKVEAIIRPFKLDEVKIALVNAGIVGMTVSEVRGFGRQKGQTERYRGSEYTVEFLQKLKIEIVVDEGQVDMVVDKLVSAARTGEIGDGKIFISPVDSVVRIRTGEKDTEAI
notes: PII signalling protein, Synechocystis sp; PCC 6803; LgBiT is fused at the C-terminally located Strep-tag purification linker of PII; cloned in pASK-IBA3; also called PII (WT); source: E. coli Lemo21, purified (Strep-Tactin Superflow); not shown: Strep-tag, internal (between PII and LgBiT), kept; LgBiT, C-terminal, kept
B2: PII (as used in the Biolayer interferometry of ref. 17) (natural protein, UniProt Q55247 1-112, looked up)
chain: B1 chain
notes: PII signalling protein
B3: PII-I86N-LgBiT (PII variant I86N fused to Large BiT) (natural protein, Synechocystis sp. PCC6803, UniProt Q55247 1-112, looked up)
chain: B1 chain with I86N
notes: PII signalling protein, Synechocystis sp; PCC 6803, variant I86N; Same fusion as m1 with I86N; the text once words the change as 'IIe86 to Asp86'; source: E. coli Lemo21, purified (Strep-Tactin Superflow); not shown: Strep-tag, internal (between PII and LgBiT), kept; LgBiT, C-terminal, kept
B4: PII-S49E-LgBiT (phosphomimetic T-loop variant of PII fused to Large BiT) (natural protein, Synechocystis sp. PCC6803, UniProt Q55247 1-112, looked up)
chain: B1 chain with S49E
notes: PII signalling protein, Synechocystis sp; PCC 6803, variant S49E; Same fusion as m1 with S49E; also called S49E PII variant; source: E. coli Lemo21, purified (Strep-Tactin Superflow); not shown: Strep-tag, internal (between PII and LgBiT), kept; LgBiT, C-terminal, kept

What was measured:
[1] = biological target: T1, NAGK-SmBiT (N-acetyl-L-glutamate kinase fused to Small BiT) (Synechocystis sp. PCC 6803, UniProt P73326 1-297); assay: split reporter (BiFC, NanoBiT); in solution; NAGK-SmBiT titrated to 10 pM PII-LgBiT; 2 mM ATP, 2 mM Arg and 50 mM NAG; 40 min at 30 °C; details: both partners purified
T1 construct: N-acetyl-L-glutamate kinase (NAGK), Synechocystis sp; PCC 6803; Cloned into pTEV5 (NdeI, BamHI); source: E. coli Lemo21, purified (Ni-NTA HisTrap); not shown: SmBiT (after a 16 amino acids flexible linker), C-terminal, kept
T1 sequence (looked up): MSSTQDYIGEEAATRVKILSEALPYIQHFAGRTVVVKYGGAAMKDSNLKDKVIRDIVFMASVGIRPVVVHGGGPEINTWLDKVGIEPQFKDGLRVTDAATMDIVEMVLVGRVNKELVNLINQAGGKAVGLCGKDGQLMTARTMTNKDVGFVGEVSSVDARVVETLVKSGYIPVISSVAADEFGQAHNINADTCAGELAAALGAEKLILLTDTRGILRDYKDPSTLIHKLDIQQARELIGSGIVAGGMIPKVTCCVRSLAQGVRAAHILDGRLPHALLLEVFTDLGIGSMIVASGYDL

[2] = biological target: T1, NAGK-SmBiT (N-acetyl-L-glutamate kinase …); assay: split reporter (BiFC, NanoBiT); in solution; NAGK-SmBiT titrated to 10 pM PII-LgBiT; 2 mM ATP, 2 mM Arg and 2 mM NAG; 40 min at 30 °C; details: both partners purified
[3] = biological target: T1, NAGK-SmBiT (N-acetyl-L-glutamate kinase …); assay: split reporter (BiFC, NanoBiT); in solution; NAGK-SmBiT titrated to 10 pM PII-LgBiT; 2 mM ADP and 2 mM NAG; 40 min at 30 °C; details: both partners purified
[4] = biological target: T1, NAGK-SmBiT (N-acetyl-L-glutamate kinase …); assay: split reporter (BiFC, NanoBiT); in solution; NAGK-SmBiT titrated to 10 pM PII-LgBiT; 2 mM ADP and 50 mM NAG; 40 min at 30 °C; details: both partners purified
[5] = biological target: T1, NAGK-SmBiT (N-acetyl-L-glutamate kinase …); assay: split reporter (BiFC, NanoBiT); in solution; NAGK-SmBiT titrated to 10 pM PII-LgBiT variant; no effector molecules; 40 min at 30 °C; apparent KD; details: both partners purified
[6] = biological target: T1, NAGK-SmBiT (N-acetyl-L-glutamate kinase …); assay: split reporter (BiFC, NanoBiT); in solution; NAGK-SmBiT titrated to 10 pM PII-LgBiT variant; 2 mM ATP and 2 mM NAG; 40 min at 30 °C; details: both partners purified
[7] = biological target: T1, NAGK-SmBiT (N-acetyl-L-glutamate kinase …); assay: split reporter (BiFC, NanoBiT); in solution; NAGK-SmBiT (3-666 nM) titrated to 10 pM PII-LgBiT variant; 2 mM ATP and 2 mM arginine; 40 min at 30 °C; details: both partners purified
[8] = biological target: T1, NAGK-SmBiT (N-acetyl-L-glutamate kinase …); assay: split reporter (BiFC, NanoBiT); in solution; NAGK-SmBiT titrated to 10 pM PII-LgBiT variant; 2 mM ATP; 40 min at 30 °C; apparent KD; details: both partners purified
[9] = biological target: T1, NAGK-SmBiT (N-acetyl-L-glutamate kinase …); assay: split reporter (BiFC, NanoBiT); in solution; NAGK-SmBiT titrated to 10 pM PII-LgBiT variant; 2 mM ATP and 50 mM NAG; 40 min at 30 °C; details: both partners purified
[10] = biological target: T1, NAGK-SmBiT (N-acetyl-L-glutamate kinase …); assay: split reporter (BiFC, NanoBiT); in solution; NAGK-SmBiT titrated to 10 pM PII-LgBiT variant; 2 mM ADP; 40 min at 30 °C; apparent KD; details: both partners purified
[11] = biological target: T2, NAGK (as used in the Biolayer interferometry of ref. 17) (UniProt P73326 1-297); assay: BLI; binding curves of ref. 17 re-calculated here by curve fitting from association and dissociation kinetics (Octet data analysis HT software); apparent KD
T2 construct: N-acetyl-L-glutamate kinase
T2 sequence (looked up): T1 sequence (looked up)

Binder	Kd [1]	Kd [2]	Kd [3]	Kd [4]	Kd [5]	Kd [6]	Kd [7]	Kd [8]	Kd [9]	Kd [10]	Kd [11]
B1	9.5 nM	16.5 nM	14.9 nM	1.2 nM	12.9 nM	4.7 nM	17.8 nM	8.8 nM	0.74 nM	30.8 nM	
B2											11.7 ± 0.005 nM
B3					12.9 nM	4.1 nM	1.56 nM	7 nM	0.68 nM	11.7 nM	
B4					133 nM	10.7 nM	432 nM	155 nM	3.39 nM	95.3 nM	

Source: paper PMC8206089, “Split NanoLuc technology allows quantitation of interactions between PII protein and its receptors with unprecedented sensitivity and reveals transient interactions” (Scientific Reports, 2021)
